Assays:
ARH-77 tumour cells = test: Survival of SCID mice bearing ARH-77 tumour cells, anti-CD71 antibody with or without Velcade, section 3.2 (FIG. 3); assay type: in vivo
Protocol: The injection was carried out between 24 to 72 hours after whole-body exposure of the mice to gamma radiation (1.8 Gy, ^60Co, INRA, Dijon, France).
The day of injection of tumour cells is considered as day 0 (D0). […] The treatment with Velcade® commences on day 4 and therefore takes place on days D4, D7, D11, D14, D18, D25, D28 and D32.
The 40 mice are separated into 5 groups.
The injection volume of Velcade® (10 ml/kg) is adjusted to the […] of the individual animals.
The mice surviving the experiment were sacrificed after 144 days following the injection of tumour cells. An autopsy was carried out on all the mice found dead or sacrificed during the experiment due to the presence of one of the pathological signs specified in the above section.
Table 5 below compares the average survival of the mice in the 5 groups which died or were sacrificed before the end of the experiment due to the presence of the pathological signs specified above.

[1] = target: CD71 antigen (transferrin receptor) on the surface of ARH-77 myeloma cells (UniProt P02786); test: flow cytometry on ARH-77 cells, control antibody at 10 µg/ml, anti-mouse IgG-PE
[2] = target: CD71 antigen (transferrin receptor) on the surface of ARH-77 myeloma cells (UniProt P02786); test: QIFIKIT indirect immunofluorescence, flow cytometry on ARH-77 cells, control antibody at 5 µg/ml; BAE is background non-specific binding capacity
[3] = target: CD71 antigen (transferrin receptor) on the surface of ARH-77 myeloma cells (UniProt P02786); test: QIFIKIT indirect immunofluorescence, flow cytometry on ARH-77 cells, control antibody at 5 µg/ml, anti-mouse IgG-FITC

Chain of UniProt P02786 (P02786 whole entry): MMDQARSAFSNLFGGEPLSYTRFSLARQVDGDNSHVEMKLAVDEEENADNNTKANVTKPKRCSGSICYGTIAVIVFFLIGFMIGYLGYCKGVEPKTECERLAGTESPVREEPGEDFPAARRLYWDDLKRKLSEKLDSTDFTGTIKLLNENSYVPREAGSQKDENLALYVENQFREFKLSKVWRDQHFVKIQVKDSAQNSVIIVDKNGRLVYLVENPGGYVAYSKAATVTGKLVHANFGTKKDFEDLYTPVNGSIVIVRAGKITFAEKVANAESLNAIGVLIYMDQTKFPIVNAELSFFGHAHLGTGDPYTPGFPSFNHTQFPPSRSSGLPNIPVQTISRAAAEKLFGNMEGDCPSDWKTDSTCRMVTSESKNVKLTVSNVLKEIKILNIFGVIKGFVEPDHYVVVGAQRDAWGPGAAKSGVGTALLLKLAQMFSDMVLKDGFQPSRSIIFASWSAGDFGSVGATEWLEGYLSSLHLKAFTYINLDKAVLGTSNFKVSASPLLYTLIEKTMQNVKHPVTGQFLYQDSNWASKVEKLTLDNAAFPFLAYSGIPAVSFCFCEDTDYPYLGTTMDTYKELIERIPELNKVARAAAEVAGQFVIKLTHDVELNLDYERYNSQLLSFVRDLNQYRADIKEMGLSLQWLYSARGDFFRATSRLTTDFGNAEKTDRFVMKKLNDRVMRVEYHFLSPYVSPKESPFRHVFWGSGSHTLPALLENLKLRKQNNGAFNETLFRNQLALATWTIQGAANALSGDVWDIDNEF

## CC(C)C[C@H](NC(=O)[C@H](Cc1ccccc1)NC(=O)c1cnccn1)B(O)O [Velcade®, bortezomib]
ARH-77 tumour cells; 8 mice per group, end at day 144, doses as in Table 4
  The number of mice that died before the end of the experiment: 8
ARH-77 tumour cells; 8 mice per group, antibodies 1.2 mg/mouse/inj twice weekly for 6 weeks, Velcade 0.5 mg/kg/inj twice weekly for 4 weeks
  day of death or of sacrifice due to pathological signs after injection of ARH-77 cells: 27 day
ARH-77 tumour cells; doses as in Table 4
  The survival median: 29.5
ARH-77 tumour cells; only mice that died or were sacrificed before the end of the experiment, doses as in Table 4
  The survival average: 28.4 days

## negative control antibody IgG1 (MAT002)
[1]
  CD71+ %: 3.7%
  CD71- %: 96.3%
  MFI: 4.9

## irrelevant antibody (anti-mouse IgG1) used as negative control
[2]
  BAE: 2290
[3]
  MFI: 5.2
